Earlier results on two substances are cited in PMC7854602.

Data set [1] concerns the target RhoA (inactive) (UniProt P61586).
Data set [2] addresses RhoA (activated) (UniProt P61586).
The target in data set [3] is Cdc42 (inactive) (UniProt P60953).
For data set [4], the target named is Cdc42 (activated) (UniProt P60953).

For orientation: Kd means the free concentration of one partner at which half of the binding sites on the other are occupied at equilibrium, for simple one-to-one binding. For the substance Rhotekin RBD 8-81 (from UniProt Q8C6B2), the Kd was 47 µM in data set [1] and 3.9 µM in data set [2].

Regarding Pak3 CBD 60-113 (from UniProt O75914), the figures for the Kd in data set [3] and in data set [4] were 149 µM and 1.8 µM, respectively.
